Target: His-tagged T-cell immunoreceptor with Ig and ITIM domains (TIGIT) (UniProt Q495A1)
Assay: biolayer interferometry, His-tagged TIGIT

B1: anti-TIGIT antibody TIG1 (antibody, from another filing, V domains shown)
VH: DVQLVESGGGLVQPGGSRKLSCAASGFTFSNFGMHWVRQAPEKGLEWVAFISSGSSSIYYADTVKGRFTISRDNPKNTLFLQMTSLRSEDTAMYYCARMRLDYYAMDYWGQGTSVTVSS
VL: DVQITQSPSYLAASPGETITINCRASKSISKYLAWYQEKPGKTNKLLIYSGSTLQSGIPSRFSGSGSGTDFTLTISSLEPEDFAMYYCQQHNEYPWTFGGGTKLEIK
- Kd: 3.12 nM

Reference: US20250296975A1
